According to patent US20120100556A1, “Functional Expression of Higher Plant Nitrate Transporters in Pichia Pastoris” (priority 2007, published 2012):

How the values were obtained:
[1] = test system: P. pastoris GS115-YNR1 transformants; assay: Nitrate transporter (NT) activity of barley two-component HATS transformants, nitrite assay; type: cell-based, Pichia pastoris; conditions: 1 mM NaNO3, 2 hours at 30° C., pH 6.5; compared to negative controls GS115 wt and GS115-YNR1
Description: To test if P. pastoris was capable to identify a plant two-component HATS system, the following constructs containing HvNrt2.1 (SEQ ID NO: 5) or HvNar2.3 (SEQ ID NO: 6) were made and transformed into GS115-YNR1 line at AOX locus individually: pPIC3.5-pGAP-HvNrt2.1 or pPIC3.5-pGAP-HvNar2.3. To obtain transformants carrying HvNar2.3 and HvNrt2.1, GS115 wt was transformed with pPIC3.5-pGAPHvNar2.3-pGAPYNR at His 4 locus, then re-transformed with pPIC3.5-pGAP-HvNrt2.1 at AOX locus after the line was confirmed carrying both YNR1 and HvNar2.3 genes by PCR. The transformants were cultured in rich media (YPD) at 30° C. for overnight. Yeast cells were collected and washed with water twice then re-suspended in […], pH 6.5 and 1% glucose containing 1 mM NaNO3. After 2 hours incubation at 30° C., the supernatant was collected for nitrite assay with 1% Sulfanilamide, 0.01% N-(1-Naphthyl)ethylene-diamine dihydrochloride and 15% (v/v) H3PO4.

functional transformants = assay: Chlorate assay, functional transformants with pGAP promoter; type: cell-based, Pichia pastoris; conditions: as low as
Method: A particularly effective way to screen for functional transformants is the use of a chlorate assay. It is known that Pichia pastoris cells with co-expressed Arabidopsis nitrate reductase and a yeast nitrate transporter driven under methanol-inducible AOX promoter are sensitive to 150 mM chlorate on solid medium. See, Unkles, et al., (2004) J. Biol. Chem., 279:28182-86. However, when a constitutive promoter rather than the commonly-used pAOX is used, the sensitivity of the functional transformants to chlorate increases substantially, and therefore the chlorate assay is much more sensitive. For example, when the preferred pGAP promoter is used, functional transformants are sensitive to chlorate concentrations much below 150 mM, such as by concentrations of as low as about 0.5 mM. Of course, the sensitivity level will vary depending on the rate of uptake of the particular Nrt integrated into the Pichia pastoris.

[2] = test system: Pichia pastoris cells with co-expressed Arabidopsis nitrate reductase and a yeast nitrate transporter; conditions: 150 mM chlorate on solid medium; methanol-inducible AOX promoter; cited from earlier work
[3] = test system: Arabidopsis Nrt1.1 transformants; assay: Functional pre-screening chlorate assay (growth on minimal plate); type: cell-based, Pichia pastoris; conditions: very small concentrations of chlorate, relative to Pichia angusta Nrt transformants
Method: 5 μL of overnight YPD transformant cultures were spotted onto a minimal plate containing yeast nitrogen base, 10 mM proline, 2% glucose and 3-20 mM chlorate. These were incubated overnight at 30° C. The amount of growth was observed the next morning. […] This assay was repeated with various Nrt genes.

[4] = test system: Pichia angusta Nrt transformants; assay: as above; type: cell-based, Pichia pastoris; conditions: 0.5 mM chlorate, overnight at 30° C.
Method: […] These were incubated overnight at 30° C. The amount of growth was observed the next morning. […] This assay was repeated with various Nrt genes.

[5] = test system: Pichia pastoris cell expressing the indicated nitrate transporter gene; assay: In vivo nitrate uptake assay (nitrite in medium by Griess reagent, Michaelis-Menten fit); type: cell-based; conditions: transporter co-expressed with YNR1 in Pichia pastoris; 20 mM MOPS pH 6.5, 1% glucose; nitrate 0-30 mM
Description: Pichia pastoris is a non-nitrate assimilating yeast. Because of this, any nitrate taken in via the Nrt is converted to nitrite by the co-expressed Nr and diffused or transported to the medium. This property permits the transformed Pichia pastoris to be used as an in vivo nitrate uptake assay, as the amount of nitrate taken into the cells is directly proportional to the nitrite later present in the growth medium. Nitrite may be quantitatively detected using Griess reagent or any other method known in the art. By way of the assay, various kinetic parameters of an Nrt may be quantified, such as Km and Vmax.
The assay is generally performed by incubating transformed Pichia pastoris on a medium containing nitrate for a set amount of time and assessing the amount of nitrite diffused to the medium after that set amount of time. The medium is preferably buffered. Most preferably, the medium has about 20 mM MOPS, pH 6.5, buffer and about 1% glucose, as this buffered medium allows the detection of linear uptake for up to several hours. The table below provides kinetic data for several Nrt proteins ascertained using the in vivo uptake assay herein described:
Pichia pastoris transformants were prepared in accordance with example 1 above and grown in YPD medium at 30° C. for 1 day. Cell pellets were washed twice with water then resuspended with a proper amount of uptake medium including nitrate. 24 different nitrate concentrations were tested, ranging from 0-30 mM. Optimal results were obtained with a buffered medium such as 20 mM MOPS, pH 6.5, 1% glucose, and the varying concentrations of nitrate. The aliquots were transferred into a 96-well plate; supernatants were mixed with Greiss reagent and monitored at 545 nm using a plate reader produced by Molecular Devices.
The raw data were fitted into proper kinetic equations, such as the Michaelis-Menton equation, using a program such as KaleidaGraph, available from Synergy Software, Reading Pa., USA. This in vivo uptake assay permits the kinetics of various nitrate transporters to be ascertained, such as those listed in Table 1 above.

HvNrt2.1: barley carrier-type protein Nrt2 of two-component HATS, SEQ ID NO: 5
NT activity [1]: did not have NT activity

[O-][Cl+2]([O-])O [chlorate]
chlorate concentration to which functional transformants are sensitive (functional transformants): about 0.5 mM
sensitivity to chlorate [2]: sensitive
sensitivity of transformants to chlorate [3]: less sensitive
growth of transformants in chlorate [4]: inhibited

B1: AtNrt1.3: higher plant nitrate transporter protein, GenBank accession AB019232 (protein, UniProt Q9LVE0 1-590, looked up)
Protein NRT1/ PTR FAMILY 6.4: MVHVSSSHGAKDGSEEAYDYRGNPPDKSKTGGWLGAGLILGSELSERICVMGISMNLVTYLVGDLHISSAKSATIVTNFMGTLNLLGLLGGFLADAKLGRYKMVAISASVTALGVLLLTVATTISSMRPPICDDFRRLHHQCIEANGHQLALLYVALYTIALGGGGIKSNVSGFGSDQFDTSDPKEEKQMIFFFNRFYFSISVGSLFAVIALVYVQDNVGRGWGYGISAATMVVAAIVLLCGTKRYRFKKPKGSPFTTIWRVGFLAWKKRKESYPAHPSLLNGYDNTTVPHTEMLKCLDKAAISKNESSPSSKDFEEKDPWIVSTVTQVEEVKLVMKLVPIWATNILFWTIYSQMTTFTVEQATFMDRKLGSFTVPAGSYSAFLILTILLFTSLNERVFVPLTRRLTKKPQGITSLQRIGVGLVFSMAAMAVAAVIENARREAAVNNDKKISAFWLVPQYFLVGAGEAFAYVGQLEFFIREAPERMKSMSTGLFLSTISMGFFVSSLLVSLVDRVTDKSWLRSNLNKARLNYFYWLLVVLGALNFLIFIVFAMKHQYKADVITVVVTDDDSVEKEVTKKESSEFELKDIP
Km [5]: 7400 µM
Vmax, μM of nitrate taken up in one minute by 50 μl Pichia pastoris cell [5]: 14.4 μM/m/50 μl cell

B2: HvNar2.3: barley associate protein Nar2 of two-component HATS, SEQ ID NO: 6 (protein)
chain: MARQGMVTALLLLVLAAGCCASAGAVAYLSKLPVTLDVTASPTPGQVLHAGEDVITVTWALNASQPAGKDADYKNVKVSLCYAPVSQKEREWRKTHDDLKKDKTCQFKITQQAYPGAGKVEYRVALDIPTATYYVRAYALDASGTQVAYGQTAPTAAFNVVSITGVTTSIKVAAGVFSAFSVASLAFFFFIEKRKKNN
modifications: Hordeum vulgare
NT activity [1]: did not have NT activity

B3: AtNrt1.1: higher plant nitrate transporter protein, GenBank accession L10357 (protein, UniProt Q05085 1-590, looked up)
Protein NRT1/ PTR FAMILY 6.3: MSLPETKSDDILLDAWDFQGRPADRSKTGGWASAAMILCIEAVERLTTLGIGVNLVTYLTGTMHLGNATAANTVTNFLGTSFMLCLLGGFIADTFLGRYLTIAIFAAIQATGVSILTLSTIIPGLRPPRCNPTTSSHCEQASGIQLTVLYLALYLTALGTGGVKASVSGFGSDQFDETEPKERSKMTYFFNRFFFCINVGSLLAVTVLVYVQDDVGRKWGYGICAFAIVLALSVFLAGTNRYRFKKLIGSPMTQVAAVIVAAWRNRKLELPADPSYLYDVDDIIAAEGSMKGKQKLPHTEQFRSLDKAAIRDQEAGVTSNVFNKWTLSTLTDVEEVKQIVRMLPIWATCILFWTVHAQLTTLSVAQSETLDRSIGSFEIPPASMAVFYVGGLLLTTAVYDRVAIRLCKKLFNYPHGLRPLQRIGLGLFFGSMAMAVAALVELKRLRTAHAHGPTVKTLPLGFYLLIPQYLIVGIGEALIYTGQLDFFLRECPKGMKGMSTGLLLSTLALGFFFSSVLVTIVEKFTGKAHPWIADDLNKGRLYNFYWLVAVLVALNFLIFLVFSKWYVYKEKRLAEVGIELDDEPSIPMGH
Km [5]: 360 µM
Vmax, μM of nitrate taken up in one minute by 50 μl Pichia pastoris cell [5]: 8.0 μM/m/50 μl cell

B4: AtNrt1.4: higher plant nitrate transporter protein, GenBank accession AC003105 (protein, UniProt Q9SZY4 1-577, looked up)
Protein NRT1/ PTR FAMILY 6.2: MESKGSWTVADAVDYKGRPADKSKTGGWITAALILGIEVVERLSTMGIAVNLVTYLMETMHLPSSTSANIVTDFMGTSFLLCLLGGFLADSFLGRFKTIGIFSTIQALGTGALAVATKLPELRPPTCHHGEACIPATAFQMTILYVSLYLIALGTGGLKSSISGFGSDQFDDKDPKEKAHMAFFFNRFFFFISMGTLLAVTVLVYMQDEVGRSWAYGICTVSMAIAIVIFLCGTKRYRYKKSQGSPVVQIFQVIAAAFRKRKMELPQSIVYLYEDNPEGIRIEHTDQFHLLDKAAIVAEGDFEQTLDGVAIPNPWKLSSVTKVEEVKMMVRLLPIWATTIIFWTTYAQMITFSVEQASTMRRNIGSFKIPAGSLTVFFVAAILITLAVYDRAIMPFWKKWKGKPGFSSLQRIAIGLVLSTAGMAAAALVEQKRLSVAKSSSQKTLPISVFLLVPQFFLVGAGEAFIYTGQLDFFITQSPKGMKTMSTGLFLTTLSLGFFVSSFLVSIVKRVTSTSTDVGWLADNINHGRLDYFYWLLVILSGINFVVYIICALWFKPTKGKDSVEKENGKGFSVEDC
Km [5]: 610 µM
Vmax, μM of nitrate taken up in one minute by 50 μl Pichia pastoris cell [5]: 4.0 μM/m/50 μl cell
